{
  "source": "paper PMC8258042",
  "target": "cardiac troponin I (cTnI) (human, UniProt P19429 2-210)",
  "sequence (P19429 2-210)": "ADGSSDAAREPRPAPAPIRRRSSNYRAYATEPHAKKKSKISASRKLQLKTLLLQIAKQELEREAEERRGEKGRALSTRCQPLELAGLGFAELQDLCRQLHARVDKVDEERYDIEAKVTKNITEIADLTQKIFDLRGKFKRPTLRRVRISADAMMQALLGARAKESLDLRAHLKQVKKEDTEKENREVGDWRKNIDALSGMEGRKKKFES",
  "assay": "strand displacement",
  "data": [
    {"binder": "Poly-T (ssDNA, 3'-NH2) DNA: TTTTTTTTTTTTTTTTTTTTCTCATGCGCTGCCCCTCTTATTTTTTTTTTT", "values": [
      {"measurement": "binding result", "value": "no binding"}
    ]}
  ]
}
